Measurements published in paper PMC2854499 (Nature, 2008).

Target: T1, MBP-tagged WSTF C-motif (208-345) (human, UniProt Q9UIG0 208-345)
T1 sequence (looked up): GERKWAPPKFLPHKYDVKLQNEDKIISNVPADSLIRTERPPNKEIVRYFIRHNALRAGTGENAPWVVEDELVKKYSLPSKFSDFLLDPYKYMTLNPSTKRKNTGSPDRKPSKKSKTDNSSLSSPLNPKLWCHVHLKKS
Test: pull-down + SEC

stoichiometry N: 1
B1: GST-tagged WSTF N-motif (1-205) (domain or fragment, human, UniProt Q9UIG0 1-205, looked up)
chain: MAPLLGRKPFPLVKPLPGEEPLFTIPHTQEAFRTREEYEARLERYSERIWTCKSTGSSQLTHKEAWEEEQEVAELLKEEFPAWYEKLVLEMVHHNTASLEKLVDTAWLEIMTKYAVGEECDFEVGKEKMLKVKIVKIHPLEKVDEEATEKKSDGACDSPSSDKENSSQIAQDHQKKETVVKEDEGRRESINDRARRSPRKLPTSL
